Reference: the supplement of paper PMC9112550, “Optimization of the antimicrobial peptide Bac7 by deep mutational scanning” (BMC Biology, 2022)

Tested on: Escherichia coli TOP10
Test: shrunken log2 fold change of peptide-encoding DNA abundance (4.5 h post-induction vs induction); higher = less antimicrobial activity (less host growth inhibition)
Conditions: time post-induction: 4.5 h; library: site-saturation at positions 5, 18, 19, 20
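Also: peptides expressed intracellularly from a pBAD plasmid library in pooled LB shake-flask culture, induced with 0.3% L-arabinose, DNA abundance read by NGS, three biological replicates, DESeq2 with apeglm shrinkage.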

Sequence	shrunken log2 fold change
RRIRERPPRLPRPRPRPRWYPRP	-0.464
RRIRGRPPRLPRPRPRPGYCPRP	-0.183
RRIRERPPRLPRPRPRPKAGPRP	0.174
RRIRFRPPRLPRPRPRPCLMPRP	-0.379
RRIRFRPPRLPRPRPRPAIWPRP	0.195
RRIRKRPPRLPRPRPRPTNLPRP	-0.0903
RRIRVRPPRLPRPRPRPVQKPRP	0.0709
RRIRHRPPRLPRPRPRPPPFPRP	0.0505
RRIRVRPPRLPRPRPRPQLEPRP	0.144
RRIRDRPPRLPRPRPRPCPWPRP	0.0761
RRIRFRPPRLPRPRPRPAYPPRP	-0.412
RRIRPRPPRLPRPRPRPLIAPRP	0.113
RRIRKRPPRLPRPRPRPPHFPRP	0.519
RRIRTRPPRLPRPRPRPFFFPRP	0.0893
RRIRVRPPRLPRPRPRPSVMPRP	-0.15
RRIRDRPPRLPRPRPRPFKQPRP	-0.235
RRIRPRPPRLPRPRPRPPNPPRP	0.453
RRIRYRPPRLPRPRPRPCIRPRP	-0.023
RRIRNRPPRLPRPRPRPCSDPRP	0.0121
RRIRQRPPRLPRPRPRPEGVPRP	0.381
RRIRERPPRLPRPRPRPFQQPRP	-0.0184
RRIRERPPRLPRPRPRPMTAPRP	-0.0417
RRIRYRPPRLPRPRPRPTLWPRP	0.31
RRIRGRPPRLPRPRPRPTWPPRP	0.52
RRIRQRPPRLPRPRPRPQQKPRP	-0.023

Sequence	shrunken log2 fold change
RRIRWRPPRLPRPRPRPVTDPRP	0.105
RRIRLRPPRLPRPRPRPHMRPRP	0.125
RRIRERPPRLPRPRPRPKTAPRP	-0.0233
RRIRWRPPRLPRPRPRPKGAPRP	0.732
RRIRPRPPRLPRPRPRPVSTPRP	0.13
RRIRNRPPRLPRPRPRPVSVPRP	-0.143
RRIRDRPPRLPRPRPRPSVCPRP	0.294
RRIRDRPPRLPRPRPRPRSCPRP	0.2
RRIRWRPPRLPRPRPRPQPPPRP	0.603
RRIRPRPPRLPRPRPRPQDGPRP	0.0623
RRIRSRPPRLPRPRPRPKMTPRP	0.0901
RRIRYRPPRLPRPRPRPIGDPRP	-0.00783
RRIRPRPPRLPRPRPRPCSVPRP	0.0152
RRIRNRPPRLPRPRPRPVHVPRP	0.0303
RRIRERPPRLPRPRPRPIPYPRP	-0.00829
RRIRKRPPRLPRPRPRPPLSPRP	0.832
RRIRWRPPRLPRPRPRPTVVPRP	0.134
RRIRMRPPRLPRPRPRPEDMPRP	3.26
RRIRPRPPRLPRPRPRPNSVPRP	-0.174
RRIRYRPPRLPRPRPRPTGKPRP	0.019
RRIRGRPPRLPRPRPRPGKNPRP	0.0656
RRIRWRPPRLPRPRPRPQHSPRP	-0.186
RRIRGRPPRLPRPRPRPAITPRP	0.721
RRIRERPPRLPRPRPRPHYMPRP	-0.0919
RRIRFRPPRLPRPRPRPEYKPRP	-0.0678

Sequence	shrunken log2 fold change
RRIRRRPPRLPRPRPRPKWMPRP	0.338
RRIRRRPPRLPRPRPRPEMIPRP	-0.00643
RRIRGRPPRLPRPRPRPRGQPRP	0.803
RRIRMRPPRLPRPRPRPAPQPRP	1.77
RRIRYRPPRLPRPRPRPQNWPRP	-0.611
RRIRSRPPRLPRPRPRPWPTPRP	0.219
RRIRPRPPRLPRPRPRPLMFPRP	-0.138
RRIRCRPPRLPRPRPRPWKLPRP	-0.269
RRIRHRPPRLPRPRPRPSMNPRP	-0.253
RRIRWRPPRLPRPRPRPVFWPRP	0.386
RRIRHRPPRLPRPRPRPYGWPRP	-0.145
RRIRRRPPRLPRPRPRPCSKPRP	-0.123
RRIRTRPPRLPRPRPRPKESPRP	0.0841
RRIRQRPPRLPRPRPRPDVWPRP	-0.0325
RRIRKRPPRLPRPRPRPMLSPRP	-0.227
RRIRERPPRLPRPRPRPPHLPRP	-0.0668
RRIRMRPPRLPRPRPRPHCHPRP	-0.137
RRIRWRPPRLPRPRPRPENMPRP	-0.185
RRIRLRPPRLPRPRPRPFFEPRP	0.058
RRIRCRPPRLPRPRPRPELNPRP	-0.137
RRIRHRPPRLPRPRPRPYSFPRP	-0.299
RRIRSRPPRLPRPRPRPCDQPRP	-0.0341
RRIRGRPPRLPRPRPRPVGYPRP	0.295
RRIRSRPPRLPRPRPRPSTSPRP	-0.455
RRIRNRPPRLPRPRPRPELLPRP	0.0274

Sequence	shrunken log2 fold change
RRIRNRPPRLPRPRPRPFIHPRP	-0.116
RRIRLRPPRLPRPRPRPTCCPRP	-0.013
RRIRGRPPRLPRPRPRPQSPPRP	0.225
RRIRVRPPRLPRPRPRPGIIPRP	0.136
RRIRGRPPRLPRPRPRPYLLPRP	-0.407
RRIRHRPPRLPRPRPRPRLKPRP	-0.0285
RRIRLRPPRLPRPRPRPAAMPRP	0.158
RRIRGRPPRLPRPRPRPADTPRP	0.0689
RRIRCRPPRLPRPRPRPLSMPRP	-0.207
RRIRVRPPRLPRPRPRPTIWPRP	-0.0331
RRIRCRPPRLPRPRPRPLAGPRP	0.153
RRIRQRPPRLPRPRPRPMIIPRP	0.0698
RRIRQRPPRLPRPRPRPICNPRP	-0.211
RRIRNRPPRLPRPRPRPQHKPRP	-0.155
RRIRLRPPRLPRPRPRPNLPPRP	-0.508
RRIRFRPPRLPRPRPRPGDKPRP	0.215
RRIRIRPPRLPRPRPRPLTWPRP	-0.585
RRIRRRPPRLPRPRPRPCLDPRP	-0.167
RRIRPRPPRLPRPRPRPCDCPRP	0.0287
RRIRERPPRLPRPRPRPTSFPRP	0.0302
RRIRNRPPRLPRPRPRPKHNPRP	-0.434
RRIRNRPPRLPRPRPRPHPAPRP	0.116
RRIRNRPPRLPRPRPRPNWMPRP	-0.199
RRIRYRPPRLPRPRPRPTLTPRP	-0.0404
RRIRTRPPRLPRPRPRPEVNPRP	0.131

Sequence	shrunken log2 fold change
RRIRNRPPRLPRPRPRPPYWPRP	0.0294
RRIRGRPPRLPRPRPRPEPLPRP	0.341
RRIRARPPRLPRPRPRPPPFPRP	0.762
RRIRARPPRLPRPRPRPMCCPRP	0.335
RRIRGRPPRLPRPRPRPQPYPRP	-0.0844
RRIRTRPPRLPRPRPRPVMSPRP	-0.123
RRIRVRPPRLPRPRPRPQVSPRP	0.0417
RRIRKRPPRLPRPRPRPQSRPRP	0.0866
RRIRSRPPRLPRPRPRPWAWPRP	-0.131
RRIRRRPPRLPRPRPRPFWPPRP	0.312
RRIRPRPPRLPRPRPRPSAKPRP	0.528
RRIRARPPRLPRPRPRPPICPRP	-0.0154
RRIRFRPPRLPRPRPRPPVGPRP	0.641
RRIRCRPPRLPRPRPRPFMQPRP	-0.402
RRIRNRPPRLPRPRPRPLKPPRP	0.203
RRIRVRPPRLPRPRPRPNKEPRP	0.0955
RRIRFRPPRLPRPRPRPLIEPRP	-0.132
RRIRKRPPRLPRPRPRPQWFPRP	-0.185
RRIRYRPPRLPRPRPRPFKQPRP	-1.41
RRIRVRPPRLPRPRPRPMQPPRP	-0.0152
RRIRTRPPRLPRPRPRPHCNPRP	-0.453
RRIRKRPPRLPRPRPRPHFAPRP	0.336
RRIRERPPRLPRPRPRPWIGPRP	0.155
RRIRLRPPRLPRPRPRPWKLPRP	-0.00968
RRIRGRPPRLPRPRPRPCPYPRP	0.0633

Sequence	shrunken log2 fold change
RRIRCRPPRLPRPRPRPKICPRP	-0.0571
RRIRWRPPRLPRPRPRPKQIPRP	0.143
RRIRCRPPRLPRPRPRPATQPRP	0.262
RRIRTRPPRLPRPRPRPSVDPRP	-0.108
RRIRLRPPRLPRPRPRPSAFPRP	-0.181
RRIRRRPPRLPRPRPRPWQVPRP	0.0694
RRIRGRPPRLPRPRPRPAWGPRP	0.268
RRIRQRPPRLPRPRPRPDDWPRP	0.0952
RRIRTRPPRLPRPRPRPVPKPRP	0.0251
RRIRDRPPRLPRPRPRPTTWPRP	0.467
RRIRLRPPRLPRPRPRPHPSPRP	-0.0856
RRIRWRPPRLPRPRPRPMKSPRP	0.252
RRIRARPPRLPRPRPRPVSEPRP	0.338
RRIRQRPPRLPRPRPRPKHCPRP	0.0753
RRIRRRPPRLPRPRPRPHEQPRP	0.0519
RRIRTRPPRLPRPRPRPNEMPRP	-0.235
RRIRTRPPRLPRPRPRPQDNPRP	-0.669
RRIRARPPRLPRPRPRPILAPRP	0.147
RRIRWRPPRLPRPRPRPCMIPRP	-0.471
RRIRTRPPRLPRPRPRPFADPRP	-0.112
RRIRCRPPRLPRPRPRPMEIPRP	-1.16
RRIRERPPRLPRPRPRPVIHPRP	-0.106
RRIRTRPPRLPRPRPRPMVLPRP	-0.0596
RRIRCRPPRLPRPRPRPHSEPRP	-0.319
RRIRTRPPRLPRPRPRPTLCPRP	0.148
